Source: the supplement of paper PMC12764529
± gives the half width of the 95% confidence interval.

How the values were obtained:
[1] = folding stability dG unfold from trypsin proteolysis; higher = more stable
In short: (§1)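 Unfolding free energy was derived, per protease or combined, by relating Bayesian-fitted K50 values from sequencing counts to a sequence-predicted unfolded-state K50 and a shared folded-state K50. The underlying digests exposed cysteine-free mini-proteins under 80 residues, in a PA-tagged cDNA display construct, to trypsin and chymotrypsin at 11 threefold-diluted concentrations and to a no-protease condition. A filter kept only designs with AlphaFold2 dimer inter-PAE above 15.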

[2] = folding stability dG unfold from chymotrypsin proteolysis; higher = more stable
In short: as §1

[3] = folding stability dG unfold (combined trypsin and chymotrypsin); higher = more stable
In short: as §1

Row | Sequence | folding stability dG unfold [1] | folding stability dG unfold [2] | folding stability dG unfold [3]
1 | SAGGSAGGSTPMSVEEIVERIKEEKRKENPNETVEIEFTAELKGGPEGAPEGIYPVKIKVPPGKSAGGSAGG [r6_79_JUSTAS] | 0.05 ± 0.051 kcal/mol | 0.489 ± 0.071 kcal/mol | 0.208 ± 0.12 kcal/mol
2 | SAGGSAGGSTVEEIADFFKQQGFTDAEINVMPPPNGRRYVTVRFEMKEPNGNKHKMNFSIWIPSAGGSAGGS [r12_246_TrROS] | 2.53 ± 0.16 kcal/mol | 1.99 ± 0.16 kcal/mol | 2.31 ± 0.34 kcal/mol
3 | SAGGSAGGSVLVIDSPEQIKKAIKEFKDNGAKSIHIRGPGRYWVIQIDPKEPKVKVERVPLGQSAGGSAGGS [r12_368_TrROS] | 0.639 ± 0.096 kcal/mol | 0.674 ± 0.17 kcal/mol | 0.643 ± 0.16 kcal/mol
4 | SAGGSAGGSVPLELELTFKLENGSFIVVKAKIEFNPETPEFKVEVLSVEIFLEPEGKIVSDEDFSAGGSAGG [r6_864_TrMRF] | 1.43 ± 0.087 kcal/mol | 3.08 ± 0.085 kcal/mol | 2.44 ± 0.29 kcal/mol
5 | SAGGSAGGSWDRIKDALRKYGFPPENVKIEFETYPNGNMNVMIRHNGEQIPRNRINKAIQELMSAGGSAGGS [r12_175_TrROS] | 1.27 ± 0.035 kcal/mol | 1.46 ± 0.096 kcal/mol | 1.54 ± 0.22 kcal/mol
6 | SAGGSAGGSWFIRVEYKRPNGQPKTLQIPVPRDQLKKMSIDEIKDRAENLGLPPNVKIEWYPFSAGGSAGGS [r12_742_TrROS] | 1.04 ± 0.032 kcal/mol | 1.78 ± 0.061 kcal/mol | 1.55 ± 0.056 kcal/mol
7 | SAGGSAGGSWIILIHWPNGKEIPIFFKSPEEANEIAEEIKKIFQEKGMEPVSVEIYPIKPGQMSAGGSAGGS [r12_301_TrROS] | 2.47 ± 0.086 kcal/mol | 2.26 ± 0.071 kcal/mol | 2.32 ± 0.21 kcal/mol
8 | SAGGSAGGSWKIVEIEVQRFPDGMYMVEIRFPDHGMPVTVHIDPPKNKITIYFPNGRSIEIPFSAGGSAGGS [r12_88_TrROS] | 3.26 ± 0.11 kcal/mol | 4.22 ± 0.089 kcal/mol | 3.99 ± 0.12 kcal/mol
9 | SAGGSAGGSWKPIPYKIKMTDGDGEKHEFPVQIWVAPEDGWVFIDFPNGHPFWIPANNIKIEPSAGGSAGGS [r12_256_TrROS] | 0.66 ± 0.062 kcal/mol | 1.88 ± 0.12 kcal/mol | 1.4 ± 0.13 kcal/mol
10 | SAGGSAGGSWVRDADGKPIPFKIDSVETKEENNPNGNRYYEIEARFPDNGKEFKATIPADDIKSAGGSAGGS [r12_823_TrROS] | -0.551 ± 0.26 kcal/mol | 0.526 ± 0.2 kcal/mol | 0.248 ± 0.11 kcal/mol
11 | SAGGSAGGSYKIDKIEVQPPPGGYYQATIEVEQVDPENGNPQRQEQEIPVPANDPKQIKDFLKSAGGSAGGS [r12_691_TrROS] | -0.523 ± 0.19 kcal/mol | 0.379 ± 0.16 kcal/mol | 0.174 ± 0.22 kcal/mol
12 | SAGGSAGGSYTVETSPVPPGGLLKTYTSPDGVVTTTLYSPDGTVGETTTTPVPPVVPPDPAAAASAGGSAGG [r6_239_JUSTAS] | -0.067 ± 0.075 kcal/mol | 1.33 ± 0.053 kcal/mol | 0.921 ± 0.11 kcal/mol
13 | SAGGSAGGSYYPIEDPNGMKIWVEPDPDNGMYRIRIQFPEGKKVERTFPPGMPLDDIPIKIKDSAGGSAGGS [r12_261_TrROS] | 0.688 ± 0.094 kcal/mol | -0.0445 ± 0.38 kcal/mol | 0.434 ± 0.24 kcal/mol
14 | SAGGSAGGTAEQIREIVEQLFRKRGMEPKKIEIKRVERNGDKVTIEVEWRWDNGRKRPRNIQIPSAGGSAGG [r6_841_TrROS] | 0.722 ± 0.17 kcal/mol | 1.66 ± 0.12 kcal/mol | 1.18 ± 0.17 kcal/mol
15 | SAGGSAGGTFEFFFPDGLYFTVEFRIVEMHPNPGNGQMHMRMEATIKIIPLPPPPPPPKDPGDKSAGGSAGG [r6_939_TrROS] | 2.71 ± 0.087 kcal/mol | 4.3 ± 0.12 kcal/mol | 3.83 ± 0.2 kcal/mol
16 | SAGGSAGGTIIIEVDTREDALEAARALAEALLPPGYRVEIVSVEEVDGRVYVAIEVRPVPEEELSAGGSAGG [r6_72_TrROS_Hall] | 2.43 ± 0.12 kcal/mol | 3.26 ± 0.078 kcal/mol | 3.17 ± 0.12 kcal/mol
17 | SAGGSAGGTIPSDYSVKELKVGGKKYVIVRYPDGIVELYSVEGNKKTLLRTVDTDPNASVSISGSAGGSAGG [r6_476_JUSTAS] | 1.73 ± 0.044 kcal/mol | 2.67 ± 0.04 kcal/mol | 2.38 ± 0.097 kcal/mol
18 | SAGGSAGGTLKELIDNITRVDPENGKQRMRIPGGAEIEINPEEGQIKIRYYHPGKPQEITLPLPSAGGSAGG [r6_793_TrROS] | 0.46 ± 0.25 kcal/mol | 0.776 ± 0.24 kcal/mol | 0.651 ± 0.31 kcal/mol
19 | SAGGSAGGVISEEEIEAKAEEAKAEAIAAGLESKEVTITSPSGKVYKITVDVNSITIEKSPAAGSAGGSAGG [r6_270_JUSTAS] | 0.879 ± 0.088 kcal/mol | 0.743 ± 0.088 kcal/mol | 0.832 ± 0.16 kcal/mol
20 | SAGGSAGGVLRMVRRALKNGKNRPIVIYVPEPEQRNFIKWLKDEWPGIKIKVVPPDQMPPNQIISAGGSAGG [r6_87_TrROS] | 1.42 ± 0.033 kcal/mol | 1.31 ± 0.068 kcal/mol | 1.46 ± 0.094 kcal/mol
21 | SAGGSAGGVVLEVEIPYESEEEAREKAEEVLKELGLPESAKITKIEFYPGPGEKKSVKVYIKLESAGGSAGG [r6_284_JUSTAS] | 1.92 ± 0.06 kcal/mol | 1.73 ± 0.018 kcal/mol | 1.83 ± 0.059 kcal/mol
